± gives the uncertainty stated by the source.
Assay: self-splicing fitness, log relative to wild type (ln ratio); higher = more splicing; Tetrahymena group I intron in knt gene, E. coli kanamycin selection, DiMSum; sequences stand for … in CUCUCU…GGAGGGAAAAGUUAUCAGGCAUGCACCUGGUAGCUAGUCUUUAAACCAAUAGAUUGCAUCGGUUUAAAAGGCAAGACCGUCAAAUUGCGGGAAAGGGGUCAACAGCCGUUCAGUACCAAGUCUCAGGGGAAACUUUGAGAUGGCCUUGCAAAGGGUAUGGUAAUAAGCUGACGGACAUGGUCCUAACCACGCAGCCAAGUCCUAAGUCAACAGAUCUUCUGUUGAUAUGGAUGCAGUUCACAGACUAAAUGUCGGUCGGGGAAGAUGUAUUCUUCUCAUAAGAUAUAGUCGGACCUCUCCUUAAUGGGAGCUAGCGGAUGAAGUGAUGCAACACUGGAGCCGCUGGGAACUAAUUUGUAUGCGAAAGUAUAUUGAUUAGUUUUGGAGUACUCGUGGUCG
How it was run: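 The eight P1ex-region nucleotides of an intron in the knt kanamycin-resistance gene on pET-22b(+) were all randomised and the library put into E. coli BL21(DE3). Six replicate transformations were grown overnight at 37°C or 30°C on LB agar with or without 25 μg/mL kanamycin, together with 100 μg/mL carbenicillin, 50 μM IPTG and 0.2% rhamnose. Colonies were pooled and amplicon-sequenced on an Illumina HiSeq 2500. Fitness from DiMSum is the error-weighted combination of wild-type-normalised replicate fold changes, kanamycin over none.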

| Sequence | self-splicing fitness (ln) (30 °C) | self-splicing fitness (ln) (37 °C) |
| --- | --- | --- |
| UUCUAGCAAUAUUACGUAUG | -3 ± 0.17 | -1.8 ± 0.17 |
| UUCUAGCAAUAUUACGUGCC | -3.06 ± 0.36 |  |
| UUCUAGCAAUAUUACGUGGU | -4.03 ± 0.34 | -0.962 ± 0.18 |
| UUCUAGCAAUAUUACGUUUA | -1.43 ± 0.16 | -1.45 ± 0.12 |
| UUCUAGCAAUAUUACGUUUC | -2.75 ± 0.39 | -2.47 ± 0.3 |
| UUGAAGCAAUAUUACGAGAA | -1.9 ± 0.17 | -1.7 ± 0.18 |
| UUGAAGCAAUAUUACGAUAA | -0.132 ± 0.23 | 0.686 ± 0.36 |
| UUGAAGCAAUAUUACGCAAA | -0.591 ± 0.13 | -0.121 ± 0.14 |
| UUGAAGCAAUAUUACGCACC | -2.62 ± 0.34 | -1.41 ± 0.4 |
| UUGAAGCAAUAUUACGCCCG | 0.0378 ± 0.14 | 0.251 ± 0.21 |
| UUGAAGCAAUAUUACGCGAU | -1.96 ± 0.34 |  |
| UUGAAGCAAUAUUACGCGCG | 0.0526 ± 0.092 | 0.136 ± 0.12 |
| UUGAAGCAAUAUUACGCGGU | -2.94 ± 0.16 | -2.3 ± 0.19 |
| UUGAAGCAAUAUUACGCUGG | -0.756 ± 0.094 | -0.221 ± 0.15 |
| UUGAAGCAAUAUUACGGCAG | 0.393 ± 0.078 | -0.0313 ± 0.092 |
| UUGAAGCAAUAUUACGGGGG | -2.59 ± 0.17 | -1.9 ± 0.19 |
| UUGAAGCAAUAUUACGUAGG | -1.27 ± 0.11 | -0.153 ± 0.12 |
| UUGAAGCAAUAUUACGUCAU | -1.41 ± 0.056 | -0.306 ± 0.069 |
| UUGAAGCAAUAUUACGUGAU | -2.29 ± 0.11 | -1.3 ± 0.16 |

| Sequence | self-splicing fitness (ln) (30 °C) | self-splicing fitness (ln) (37 °C) |
| --- | --- | --- |
| UUGAAGCAAUAUUACGUGUC | -2.93 ± 0.21 | -2.47 ± 0.24 |
| UUGAAGCAAUAUUACGUGUG | -0.963 ± 0.056 | -0.69 ± 0.072 |
| UUGAAGCAAUAUUACGUUAU | -2.08 ± 0.099 | -0.402 ± 0.1 |
| UUGAAGCAAUAUUACGUUUU | -2.7 ± 0.2 | -2.52 ± 0.3 |
| UUGCAGCAAUAUUACGAAAC | -3.32 ± 0.41 | -1.87 ± 0.45 |
| UUGCAGCAAUAUUACGAAAU | -2.39 ± 0.22 | -2.33 ± 0.39 |
| UUGCAGCAAUAUUACGAAGU | -2.38 ± 0.23 | -1.75 ± 0.36 |
| UUGCAGCAAUAUUACGAAUA | -1.66 ± 0.1 | -0.197 ± 0.13 |
| UUGCAGCAAUAUUACGACAA | -0.619 ± 0.087 | 0.212 ± 0.1 |
| UUGCAGCAAUAUUACGACUG | -2.52 ± 0.19 | -1.72 ± 0.2 |
| UUGCAGCAAUAUUACGAUAA | -0.501 ± 0.11 | 0.0102 ± 0.12 |
| UUGCAGCAAUAUUACGAUUA | -0.176 ± 0.12 | 0.339 ± 0.087 |
| UUGCAGCAAUAUUACGCAAC |  | -2.11 ± 0.22 |
| UUGCAGCAAUAUUACGCAGC | -2.41 ± 0.41 | -1.83 ± 0.3 |
| UUGCAGCAAUAUUACGCCUA | -0.384 ± 0.084 | 0.346 ± 0.11 |
| UUGCAGCAAUAUUACGCCUG | -2.63 ± 0.15 | -1.6 ± 0.19 |
| UUGCAGCAAUAUUACGCGGC |  | -2.28 ± 0.46 |
| UUGCAGCAAUAUUACGCUCA | -0.833 ± 0.18 | -0.278 ± 0.17 |
| UUGCAGCAAUAUUACGGACA | -0.355 ± 0.074 | -0.669 ± 0.091 |
